These results are taken from patent US6635738.

Series [1] addresses IL-1β in PC12 cell cultures. The series is described as follows: cell-based or functional assay.
Series [2] concerns the target IL-1 receptor on PC12 cells. The series is described as follows: cell-based or functional assay.
Series [3] addresses Recombinant human pro-IL-1β, P01584.

Chain of Recombinant human pro-IL-1β, P01584 (P01584 whole entry, looked up): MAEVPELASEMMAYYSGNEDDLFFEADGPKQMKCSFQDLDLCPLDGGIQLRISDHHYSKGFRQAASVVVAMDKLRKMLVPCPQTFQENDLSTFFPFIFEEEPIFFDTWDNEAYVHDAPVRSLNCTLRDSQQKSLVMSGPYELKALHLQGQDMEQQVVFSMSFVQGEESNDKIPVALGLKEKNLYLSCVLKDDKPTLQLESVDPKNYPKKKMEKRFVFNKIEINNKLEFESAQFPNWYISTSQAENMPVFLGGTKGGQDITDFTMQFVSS

“Blocking monoclonal hamster anti-mouse IL-1β antibody (Genzyme)” yielded a suppression of death of V-ASOD1 treated (SOD1 deficient) PC12 cells; antibody concentration used in series [1] of 30 µg/mL.
The molecule “IL-1 receptor antagonist (rmIL-1Ra) (from UniProt P25085 27-178) (ligand)” had a suppression of death of V-ASOD1 treated (SOD1 deficient) PC12 cells; antagonist concentration used in series [2] of 100 ng/mL.

B1: Recombinant human ICE (interleukin 1β converting enzyme) (protein)
chain: NPAMPTSSGSEGNVKLCSLEEAQRIWKQKSAEIYPIMDKSSRTRLALIICNEEFDSIPRRTGAEVDITGMTMLLQNLGYSVDVKKNLTASDMTTELEAFAHRPEHKTSDSTFLVFMSHGIREGICGKKHSEQVPDILQLNAIFNMLNTKNCPSLKDKPKVIIIQACRGDSPGVVWFKDSVGVSGNLSLPTTEEFEDDAIKKAHIEKDFIAFCSSTPDNVSWRHPTMGSVFIGRLIEHMQEYACSCDVEEIFRKVRFSFEQPDGRAQMPTTERVTLTRCFYLFPGH
In the case of B1, the “cleavage of pro-IL-1β by ICE in vitro (SDS-PAGE and immunoblot)” value in series [3] is “There is some cleavage in the presence of the inhibitor but much less than seen with ICE alone”.
